Experiments:
[1] = target: T1, EGFR-ECD 3 重组蛋白 (EGFR胞外段结构域3) (UniProt P00533 334-504, limits assumed); test: ELISA, coated EGFR-ECD3 100 ng/well, NbH3 from 40 μg/mL in 1:2 dilutions
T1 construct: domain: EGFR胞外段结构域3 (EGFR-ECD 3); Secreted from transiently transfected 293F cells (pCMV-EGFR-ECD3) and purified on a nickel column; also called EGFR胞外段的CD3区域片段; EGFR-ECD 3 纯化蛋白; not shown: purified on a nickel column, detected with anti

[2] = target: T1, EGFR-ECD 3 重组蛋白 (EGFR胞外段结构域3); test: ELISA, coated proteins 100 ng/well (EGFR-ECD3 against EGF, bFGF, Her2), anti-HA detection

EC50 [1]: 8.76 µg/mL | ratio of binding (OD) against the other control proteins [2]: > 2
B1: 抗EGFR纳米抗体 Nb H3 (VHH)
VHH: QVQLQESGGGSVQAGGSLNLSCAVSGYTGCKNGMSWYRQAPGKEREFVSGIDRDGSPSYADSVKGRFTISQDNAKNIVFLQMNSLRPEDTAMYYCATNPQRNIYGGSWCNYWGQGTQVTVSS
notes: From a Bactrian camel immunised with EGFR-ECD3; expressed in E. coli WK6 from the pComb-3X plasmid and purified on a nickel column; not shown: tags from the pComb-3X vector (purified on a nickel column, detected with anti-H)
